Results as given in patent publication US20210130436A1 (published 2021).
Residue numbers refer to the chain shown, from its start. Numbers in names are those of the source. Blank lines part the entries; values can stand above or below the binder they belong to.

How the values were obtained:
[1] = molecular target: T1, human PD-L1, expressed on CHO cells (human, UniProt Q9NZQ7 19-290); assay: flow cytometry; MFI on PD-L1 cells over MFI on CD28 (Jurkat) cells, 33.3 nM
T1 construct: whole, on cells; also called huPD-L1; CD274
T1 sequence (Q9NZQ7 19-290): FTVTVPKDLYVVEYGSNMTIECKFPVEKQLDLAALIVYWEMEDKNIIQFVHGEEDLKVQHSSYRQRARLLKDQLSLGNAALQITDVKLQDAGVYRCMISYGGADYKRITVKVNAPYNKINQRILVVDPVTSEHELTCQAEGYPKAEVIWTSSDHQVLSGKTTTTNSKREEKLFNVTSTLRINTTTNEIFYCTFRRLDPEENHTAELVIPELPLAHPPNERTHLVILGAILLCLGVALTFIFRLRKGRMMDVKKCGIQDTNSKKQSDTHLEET

[2] = molecular target: T2, human CTLA-4 (CTLA4), expressed on CHO cells (human, UniProt P16410 36-223); assay: flow cytometry, CHO/CTLA-4 cells, 33.3 nM; MFI relative to CD80 WT IgV-Fc
T2 construct: whole, on cells; also called huCTLA4
T2 sequence (P16410 36-223): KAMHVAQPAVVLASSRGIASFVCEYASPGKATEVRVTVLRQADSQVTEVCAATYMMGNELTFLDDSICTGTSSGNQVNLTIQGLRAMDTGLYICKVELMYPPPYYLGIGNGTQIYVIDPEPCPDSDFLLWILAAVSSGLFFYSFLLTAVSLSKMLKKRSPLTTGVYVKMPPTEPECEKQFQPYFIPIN

[3] = molecular target: T3, human CD28, endogenously expressed on Jurkat/IL2 reporter cells (human, UniProt P10747 19-220); assay: flow cytometry, Jurkat (CD28) cells, 33.3 nM; MFI relative to CD80 WT IgV-Fc
T3 construct: whole, on cells

[4] = molecular target: T1, human PD-L1, expressed on CHO cells; assay: flow cytometry, CHO/PD-L1 cells, 33.3 nM; MFI relative to CD80 WT IgV-Fc
human PD-L1 [5] = molecular target: T4, human PD-L1 (human, UniProt Q9NZQ7 19-290); assay: flow cytometry, CHO cells stably expressing PD-L1
T4 construct: also called huPD-L1; CD274
T4 sequence (Q9NZQ7 19-290): as the sequence (Q9NZQ7 19-290) above

human CD28 [6] = molecular target: human CD28 (human, UniProt P10747 19-220); assay: flow cytometry, Jurkat cells (CD28)
human PD-L1 [7] = molecular target: T4, human PD-L1; assay: flow cytometry; PD-L1 MFI over CD28 MFI
human CTLA-4 [8] = molecular target: T5, human CTLA-4 (human, UniProt P16410 36-223); assay: flow cytometry, CHO cells stably expressing CTLA4
T5 construct: also called huCTLA4
T5 sequence (P16410 36-223): as the sequence (P16410 36-223) above

human PD-L1 [9] = molecular target: T4, human PD-L1; assay: cell-based or functional assay
human CD28 [10] = molecular target: T6, human CD28 (human, UniProt P10747 19-220); assay: flow cytometry, Jurkat/IL2 reporter cells (endogenous CD28), 33.3 nM, PE anti-human Fc
T6 construct: whole, on cells; Endogenous CD28 of Jurkat/IL2 reporter cells

human PD-L1 [11] = molecular target: T7, human PD-L1 (human, UniProt Q9NZQ7 19-290); assay: cell-based or functional assay; remark: listed apart in the source
T7 sequence (Q9NZQ7 19-290): as the sequence (Q9NZQ7 19-290) above

human PD-L1 [12] = molecular target: T7, human PD-L1; assay: flow cytometry; MFI on CHO/PD-L1 over MFI on Jurkat (CD28), 33.3 nM
human PD-L1 [13] = molecular target: T7, human PD-L1; assay: flow cytometry, CHO cells stably expressing huPD-L1, 33.3 nM, PE anti-human Fc
human CTLA-4 [14] = molecular target: T8, human CTLA-4 (human, UniProt P16410 36-223); assay: flow cytometry, CHO cells stably expressing huCTLA4, 33.3 nM, PE anti-human Fc
T8 construct: whole, on cells; also called huCTLA4
T8 sequence (P16410 36-223): as the sequence (P16410 36-223) above

[15] = molecular target: T9, human PD-L1, full-length, expressed on transfected HEK293 (Expi293F) cells (human, UniProt Q9NZQ7 19-290); assay: flow cytometry, Fc fusion on HEK293 cells transfected with full-length human PD-L1
T9 construct: whole, on cells; also called CD274; B7-H1
T9 sequence (Q9NZQ7 19-290): as the sequence (Q9NZQ7 19-290) above

PD-1 = molecular target: T10, PD-1 (Homo sapiens (Human), UniProt Q15116 21-288); assay: flow cytometry on Jurkat/PD-1 cells, 50 nM
T10 construct: The construct in the cells is not described; also called PDCD1
T10 sequence (Q15116 21-288): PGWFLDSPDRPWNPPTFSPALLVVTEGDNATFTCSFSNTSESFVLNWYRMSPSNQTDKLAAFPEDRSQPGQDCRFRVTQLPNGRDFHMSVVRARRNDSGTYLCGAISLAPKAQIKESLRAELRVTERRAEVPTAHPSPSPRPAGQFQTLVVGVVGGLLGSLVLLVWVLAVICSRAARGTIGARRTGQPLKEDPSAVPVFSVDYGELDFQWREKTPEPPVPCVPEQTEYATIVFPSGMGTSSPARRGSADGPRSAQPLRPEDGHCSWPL

B2: CD80 WT IgV-Fc (Fc fusion, not shown: a dimerising Fc or GST)
chain: VIHVTKEVKEVATLSCGHNVSVEELAQTRIYWQKEKKMVLTMMSGDMNIWPEYKNRTIFDITNNLSIVILALRPSDEGTYECVVLKYEKDAFKREHLAEVTLSVKAD
notes: Wild-type control; also called WT CD80-IgV-Fc
- Fold change to WT CD80 (human PD-L1 [5]): 0.9 fold
- MFI at 33.3 nM (human PD-L1 [5]): 44 MFI
- Fold change to WT CD80 (human CD28 [6]): 3 fold
- MFI at 33.3 nM (human CD28 [6]): 95 MFI
- Ratio of PDL1:CD28 (human PD-L1 [7]): 0.5 ratio
- Fold change to WT CD80 (human CTLA-4 [8]): 15.1 fold
- MFI at 33.3 nM (human CTLA-4 [8]): 26400 MFI
- Fold Increase over WT CD80-IgV-Fc, Jurkat/IL2 + CHO/OKT3/PD-L1 Reporter Assay (human PD-L1 [9]): 1 fold

B3: CD80 WT IgV-Fc (Fc fusion, not shown: a dimerising Fc or GST)
chain: B2 chain
notes: also called WT CD80-IgV-Fc; wild-type CD80 IgV-Fc
- Fold change to WT (human CD28 [10]): 1 fold
- MFI at 33.3 nM (human CD28 [10]): 41 MFI
- Fold Increase over WT CD80-IgV-Fc (Jurkat/IL2 + CHO/OKT3/PD-L1 reporter, 5.0 nM) (human PD-L1 [11]): 1 fold
- Ratio of PDL1:CD28 (human PD-L1 [12]): 2 ratio
- Fold change to WT (human PD-L1 [13]): 1 fold
- MFI at 33.3 nM (human PD-L1 [13]): 83 MFI
- Fold change to WT CD80 (human CTLA-4 [14]): 1 fold
- MFI at 33.3 nM (human CTLA-4 [14]): 1030 MFI

B4: variant CD80 IgV-Fc S44P/A71D (Fc fusion)
chain: B2 chain with S44P, A71D
notes: not shown: which was us
- MFI at 22.2 nM [15]: 6310 MFI

Further lines, results first:

- Ratio of PDL1:CD28 [1]: 1 ratio
- Fold change to WT CD80 [2]: 1 fold
- Fold change to WT CD80 [3]: 1 fold
- Fold change to WT CD80 [4]: 1 fold
B1: CD80 WT IgV-Fc (Fc fusion, not shown: small tags and cut ends; a dimerising Fc or GST)
chain: B2 chain
notes: also called wild-type CD80 IgV-Fc

- Fold increase over wildtype PD-L1 IgV-Fc (PD-1): 0 fold
- MFI at 50 nM (PD-1): 251
B5: PD-L1 A33D/S75P/D104G IgV-Fc (Fc fusion, not shown: a dimerising Fc or GST)
chain: FTVTVPKDLYVVEYGSNMTIECKFPVEKQLDLDALIVYWEMEDKNIIQFVHGEEDLKVQHSSYRQRARLLKDQLPLGNAALQITDVKLQDAGVYRCMISYGGAGYKRITVKVNA
